From patent publication US20250084155A1

Tests used:
[1] = target: HSP70 (human HSP70; the antigen of the binning, humanization and variant binding assays) (human) (UniProt P0DMV8); assay: Octet epitope binning, sandwich format; cell row C92F3-5 / column m77A; the sheet does not say whether rows or columns are the first antibody
[2] = target: HSP70 (human HSP70; the antigen of the binning, humanization and variant binding assays) (human) (UniProt P0DMV8); assay: Octet epitope binning, sandwich format; cell row C92F3-5 / column N15F2-5; the sheet does not say whether rows or columns are the first antibody
[3] = target: HSP70 (human HSP70; the antigen of the binning, humanization and variant binding assays) (human) (UniProt P0DMV8); assay: Octet epitope binning, sandwich format (first antibody on the sensor, then HSP70, then second antibody); cell row C92F3-5 / column C92F3-5; the sheet does not say whether rows or columns are the first antibody
[4] = target: HSP70 (human HSP70; the antigen of the binning, humanization and variant binding assays) (human) (UniProt P0DMV8); assay: Octet epitope binning, sandwich format; cell row N15F2-5 / column m77A; the sheet does not say whether rows or columns are the first antibody
[5] = target: HSP70 (human HSP70; the antigen of the binning, humanization and variant binding assays) (human) (UniProt P0DMV8); assay: Octet epitope binning, sandwich format; cell row N15F2-5 / column C92F3-5; the sheet does not say whether rows or columns are the first antibody
[6] = target: HSP70 (human HSP70; the antigen of the binning, humanization and variant binding assays) (human) (UniProt P0DMV8); assay: Octet epitope binning, sandwich format; cell row N15F2-5 / column N15F2-5; the sheet does not say whether rows or columns are the first antibody

Chain of HSP70 (human HSP70; the antigen of the binning, humanization and variant binding assays) (human) (P0DMV8 whole entry, change not shown): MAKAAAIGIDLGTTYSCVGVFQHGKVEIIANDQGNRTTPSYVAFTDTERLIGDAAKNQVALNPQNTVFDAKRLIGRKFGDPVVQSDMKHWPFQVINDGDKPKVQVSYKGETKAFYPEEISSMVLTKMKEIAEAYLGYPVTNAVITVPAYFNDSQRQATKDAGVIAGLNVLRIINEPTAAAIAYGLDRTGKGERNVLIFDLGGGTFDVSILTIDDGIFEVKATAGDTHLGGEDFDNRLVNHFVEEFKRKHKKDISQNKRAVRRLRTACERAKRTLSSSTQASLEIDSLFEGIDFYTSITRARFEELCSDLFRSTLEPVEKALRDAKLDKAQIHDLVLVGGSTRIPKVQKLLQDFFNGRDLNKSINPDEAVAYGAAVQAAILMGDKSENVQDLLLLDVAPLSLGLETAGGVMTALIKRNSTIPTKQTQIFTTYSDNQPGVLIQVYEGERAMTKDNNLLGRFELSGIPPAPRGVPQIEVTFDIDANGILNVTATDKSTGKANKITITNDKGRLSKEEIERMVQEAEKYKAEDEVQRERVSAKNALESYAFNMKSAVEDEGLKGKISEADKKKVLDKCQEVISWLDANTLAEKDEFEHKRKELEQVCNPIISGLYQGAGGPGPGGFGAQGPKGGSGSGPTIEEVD

C92F3-5 (Fisher Scientific) anti-HSP70 antibody
maximal binding in the presence of the potentially competing antibody (given as a fraction; legend: percent) [1]: 0.781 | maximal binding in the presence of the potentially competing antibody (given as a fraction; legend: percent) [2]: 0.489 | maximal binding in the presence of the potentially competing antibody (given as a fraction; legend: percent) [3]: 0

N15F2-5 (Enzo Life Sciences) anti-HSP70 antibody
maximal binding in the presence of the potentially competing antibody (given as a fraction; legend: percent) [4]: 0.761 | maximal binding in the presence of the potentially competing antibody (given as a fraction; legend: percent) [5]: 0.492 | maximal binding in the presence of the potentially competing antibody (given as a fraction; legend: percent) [6]: 0
